Values quoted from earlier work, collected in publication PMC10551901.
pKd: −log10 of the molar value.

What was measured:
[1] = molecular target: Rab32 (Homo sapiens) (UniProt Q13637)
[2] = molecular target: Rab38 (Homo sapiens) (UniProt P57729)
[3] = molecular target: Rab29 (Homo sapiens) (UniProt O14966)

Measured: pKd

Sequence of UniProt Q13637 (Q13637 2-225): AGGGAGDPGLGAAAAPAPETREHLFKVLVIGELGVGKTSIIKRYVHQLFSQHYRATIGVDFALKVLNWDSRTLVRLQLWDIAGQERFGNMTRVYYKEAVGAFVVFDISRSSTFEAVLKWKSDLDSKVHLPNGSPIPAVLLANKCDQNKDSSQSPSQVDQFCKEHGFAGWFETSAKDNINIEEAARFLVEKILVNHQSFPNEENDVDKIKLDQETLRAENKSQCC
Sequence of UniProt P57729 (P57729 whole entry): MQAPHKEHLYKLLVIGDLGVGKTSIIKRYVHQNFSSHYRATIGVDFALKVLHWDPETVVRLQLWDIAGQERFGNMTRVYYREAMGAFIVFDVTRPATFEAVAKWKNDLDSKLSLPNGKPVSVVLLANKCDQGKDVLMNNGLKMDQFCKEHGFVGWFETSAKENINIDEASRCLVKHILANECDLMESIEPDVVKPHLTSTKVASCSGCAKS
Sequence of UniProt O14966 (O14966 whole entry): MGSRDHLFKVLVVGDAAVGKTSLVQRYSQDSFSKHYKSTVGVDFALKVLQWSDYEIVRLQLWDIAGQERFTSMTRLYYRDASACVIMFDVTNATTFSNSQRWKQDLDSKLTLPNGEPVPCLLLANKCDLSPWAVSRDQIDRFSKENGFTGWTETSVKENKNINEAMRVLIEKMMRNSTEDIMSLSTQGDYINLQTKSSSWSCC

LRRK2 1-552 (from UniProt Q5S007)
5.70: all assays above
